Measured values taken from patent publication US20150191542A1 (INNATE PHARMA S A, published 2015).
Substitutions are numbered along the chain they refer to.

B1: antibody 16A8 (antibody, V domains shown)
VH: EVQLVESGGGLVKPGGSLKLSCAASGFTFSRYAMSWVRQTPEKRLEWVATIFSGGSYTYYPDSVKGRFTISRDNANNTLYLQMSSLKAEDTAMYFCARPNWERTFDYWGQGTTLTVSS
VL: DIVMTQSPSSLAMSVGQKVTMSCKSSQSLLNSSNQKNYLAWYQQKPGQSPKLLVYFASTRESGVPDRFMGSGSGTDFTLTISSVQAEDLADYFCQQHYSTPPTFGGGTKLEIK
notes: Murine hybridoma antibody of IgG2a isotype as tested; also called 16A8-Biot
B2: antibody 9C10 (antibody, V domains shown)
VH: QVQLQQPGAELVRPGTSVNLSCKASGYSFTRYWMNWVKQRPGQGLEWIGMIHPSDSETRLNQKFKDKATLTVDKSSSTAYMQLSSPTSEDSAVYYCGYGNFFYVMDYWGQGTSVTVSS
VL: DILLTQSPAILSVSPGERVSFSCRASQSIGTSIHWYQQRTNGSPRLLIKFASESISGIPSRFSGSGSGTDFTLNINSVESEDIADYYCQQSNFWPFTFGSGTKLEVK
modifications: Biotinylated when captured in the SPR assays (9C10-Biot); the sites are not given.
notes: Murine hybridoma antibody of IgG2b isotype as tested; also called 9C10-Biot

Assays:
[1] = target: T1, MICA*007 expressed on C1R transfectant cells (human, UniProt Q29983 24-297, Glycosylated on cells; the letters do not carry this.); test: flow cytometry on C1R-MICA*007 cells, 3-parameter logistic fit
T1 construct: also called C1R-MICA*007; C1R-MICA*07
T1 chain: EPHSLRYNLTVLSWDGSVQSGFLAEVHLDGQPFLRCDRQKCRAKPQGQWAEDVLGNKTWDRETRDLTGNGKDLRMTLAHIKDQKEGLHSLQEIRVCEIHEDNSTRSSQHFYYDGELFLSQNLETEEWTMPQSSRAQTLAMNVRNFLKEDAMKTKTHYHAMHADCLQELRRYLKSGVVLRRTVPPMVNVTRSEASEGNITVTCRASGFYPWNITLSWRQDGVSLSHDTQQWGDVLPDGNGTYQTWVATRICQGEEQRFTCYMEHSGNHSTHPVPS
Description: (§1) The binding of antibodies obtained from the first and second immunization series (including 9C10, 20C6 and 16A8) were tested for binding to MICA-expressing CR1 transfectant cells C1R-MICA*001, C1R-MICA*004, C1R-MICA*007 and C1R-MICA*008 (Pr. A. Steinle, Eberhard-Karls University Tuebingen, Germany) described in Salih et al. (2003) Blood 102(4): […]. Binding was analyzed by flow cytometry.
(§2) Cells were harvested and stained in PBS 1×/BSA 0,2%/EDTA 2 mM buffer during 30 minutes at 4° C. using a dose-range of the anti-MICA mAbs. After two washes in staining buffer, cells were stained for 30 min at 4° C. with goat anti-mouse (H+L)-PE polyclonal antibodies (1/200). After two washes, stainings were acquired on a BD FACS Canto II and analyzed using the FlowJo software.
(§3) Antibodies 9C10, 20C6 and 16A8 bound to each of the C1R-MICA*001, C1R-MICA*004, C1R-MICA*007 and C1R-MICA*008 cells (see FIGS. 3A, 3B and 3C for antibodies 9C10, 20C6 and 16A8 respectively). […] EC50 values are shown in Table C in μg/ml (calculated using a 3-parameter logistic fit).

[2] = target: T2, MICA*001 extracellular domain recombinant protein (full extracellular domain with a BirA or a Poly-His Tag) (human, UniProt Q29983 24-297); test: ELISA, 3 µg/ml recombinant protein coated
T2 construct: it may be the same as MICA*001-His; also called MICA extracellular domain recombinant protein; not shown: BirA or poly-His tag
T2 sequence: T1 chain with A24T, E125K
Description: 3 μg/ml of the indicated MICA recombinant proteins were coated overnight in 96-well plates in PBS 1× at 4° C. All subsequent steps were performed at room temperature. After washes with PBS 1×/Tween 0.05%, plates were saturated for an additional 2 hours in PBS 1×/BSA 1%. Two additional washes were performed prior adding the tested anti-MICA mAb in PBS 1×/BSA 1% for 2 hours. Antibodies were washed and a horseradish peroxidase conjugated goat polyclonal anti-mouse IgG (GAM-HRP) in PBS 1×/BSA 1% was added for 1 hour. Final washing steps were performed and TMB substrate was added to reveal the ELISA (5 to 20 min in the dark) and 1M HCl was added to stop the enzymatic reaction. O.D. was measured at 450 nm.
9C10 binds to MICA extracellular domain recombinant-protein but not MICA extracellular domain α3 recombinant protein. Antibody 16A8, however, bound to both MICA extracellular domain recombinant protein […] MICA extracellular domain α3 recombinant protein. Therefore, it can be concluded from this ELISA experiment that the binding site on MICA of 9C10 antibodies includes the α1 and/or α2 domains while antibody 16A8 binds to MICA within the α3 domain. […] BAMO1 is a commercially available anti-MICA specific for α1α2 domain and BAMO3 is a commercially available anti-MICA specific for α3 domain.

[3] = target: T3, MICA*001 expressed on transfected cells (human); test: flow cytometry on C1R-MICA*001 cells, 3-parameter logistic fit
T3 construct: the cells carry the complete allele; also called C1R-MICA*001; C1R-MICA*01
T3 chain: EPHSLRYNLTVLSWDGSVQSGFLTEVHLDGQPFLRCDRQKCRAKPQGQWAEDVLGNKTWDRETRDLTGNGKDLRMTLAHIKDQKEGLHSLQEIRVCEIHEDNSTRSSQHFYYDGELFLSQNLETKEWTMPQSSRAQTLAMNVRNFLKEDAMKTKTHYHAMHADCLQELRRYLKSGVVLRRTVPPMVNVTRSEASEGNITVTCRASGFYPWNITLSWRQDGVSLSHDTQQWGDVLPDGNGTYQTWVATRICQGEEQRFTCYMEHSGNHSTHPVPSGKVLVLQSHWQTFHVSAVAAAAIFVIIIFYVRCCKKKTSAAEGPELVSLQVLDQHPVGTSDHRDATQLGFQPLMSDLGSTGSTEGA
Description: as §1, §2, §3

[4] = target: T4, MICA*008 expressed on C1R transfectant cells (human, UniProt Q29983 24-297, Glycosylated on cells; the letters do not carry this.); test: flow cytometry on C1R-MICA*008 cells, 3-parameter logistic fit
T4 construct: also called C1R-MICA*008; C1R-MICA*08
T4 chain: T1 chain with C36Y, M129V, K173E, G206S, W210R, T213I, S215T, Q251R
Description: as §1, §2, §3

Binder | EC50 [1] | binding result [2] | EC50 [3] | EC50 [4]
B1 | 0.74 µg/mL | binds | 1.18 µg/mL | 0.33 µg/mL
B2 | 7.93 µg/mL | binds | 3.15 µg/mL | 0.15 µg/mL
